In CN116472284A (UNIV CALIFORNIA, dated 2023):

Experiments:
[1] = molecular target: T1, SARS-CoV-2 spike receptor binding domain (RBD) (SARS-CoV-2, UniProt P0DTC2 328-533)
[2] = molecular target: T1, SARS-CoV-2 spike receptor binding …; test: SPR, biotinylated RBD on CAP chip

B1: Nb6 (VHH)
VHH: QVQLVESGGGLVQAGGSLRLSCAASGIIFGRNAMGWYRQAPGKERELVAGITRRGSITYYADSVKGRFTISRDNAKNTVYLQMNSLKPEDTAVYYCAADPASPAPGDYWGQGTQVTVSS
notes: also called AeroNab6; NbCOV6
EC50 [1]: 190 nM
Kd [2]: 41 nM
